From the nanobody polyreactivity screen of Harvey et al. (2022)

Assay: yeast display, Sf9 membrane polyspecificity reagent, FACS + sequencing; frameworks hold sequencing errors
How it was run: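 Polyreactivity labels are assigned by the sorting gate from which each nanobody was recovered. The gates were low and high (top ~1%), set on anti-HA fluorescence for expression and streptavidin fluorescence for reagent binding. Before sorting, galactose-induced (36–48 hours) yeast display cells were stained for 1 hour at 4 °C with 10% biotinylated, detergent-solubilized Sf9 membrane reagent.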

QVQLVESGGGLVQAGGSLRLSCAASGSSFDPYAMGWYRQAPGKERELVATITYSGGRTYYADSVKGRFTISRDNAKNTVYLQMNSLKPEDTAVYYCAADWDPGYYVQYGYDYWGQGTQVTVSS
polyreactivity (PSR sort gate): low polyreactivity

QVQLVESGGGLVQAGGSLRLSCAASGLIFGGYAMGWYRQAPGKERELVAAIYWDDGDTYYADSVKGRFTISRDNAKNTVYLQMNSLKTEDTAVYYCNAAGALIFGEGYYVEYDYDYWGQGTQVTVSS
polyreactivity (PSR sort gate): low polyreactivity

QVQLVESGGGLVQAGGSLRLSCAASGSTLQVNAMGWYRQATGKERELVDTISFSGGSTYYADSVKGRFTISRDNAKNTVYLQMNSLKPEDTAVYYCNADSFVSWYNQFWYQATYDYWGQGTQVTVSS
polyreactivity (PSR sort gate): low polyreactivity

QVQLVESGGGLVQAGGSLRLSCAASGRTFHSYAMGWYRQAPGKERELVAVITRRGGSTYYADSVKGRFTISRDNAKNTVYLQMNSLKPEDTAVYYCNKGKSYTYDYWGQGTQVTVTS
polyreactivity (PSR sort gate): high polyreactivity

QVQLVESGGGLVQAGGRLRLSCAASGFIFYYYAMGWYRQAPGKERELVAVLTESASSTYYADSVKGRFTISRDNAKNTVYLQMNSLKPEDTAVYYCNADFWPYTGKYDYWGQGTQVTVSS
polyreactivity (PSR sort gate): low polyreactivity

QVQLVESGGGLVQAGGSLRLSCAASGFIFRYYTMGWYRQAPGKERELVAVITSGGTTYYADSVKGRFTISRDNAKNTVYLQMNSLKPEDTAGAADQWTIHRWATYGYWGQGTQVTVSS
polyreactivity (PSR sort gate): low polyreactivity

QVQLVESGGGLVQAGGSLRLSCAASGSTFVPNAMGWYRQAPGKEREFVAAIRVSGDNTYYADSVKGRFTISRDNAKNTVYLQMNSLKPEDTAVYYCAATGTVLGSVDYWGQGTQVTVSS
polyreactivity (PSR sort gate): low polyreactivity

QVQLVESGGGLVQAGGSLRLSCAASGRTFKINAMGWYRQAPGKERELVAAIRRRGGSTYYADSVKGRFTISRDNAKNTVYLQMNSLKPEDTAVYYCAKTSWPYRVPSDSVAYDYWGQGTQVTVSS
polyreactivity (PSR sort gate): low polyreactivity

QVQLVESGGGLVQAGGSLRLICAASGSTFAGNTMGWYRQAPGKERELVATITSDGSTDYADSVKGRFTISRDNAKNTVYYQMNSLKAEDPAVYYCAKARGLSKMDSWGQGTQVTVSS
polyreactivity (PSR sort gate): low polyreactivity

QVQLVESGGGLVQARGILRLSCAASGSTFYTYTAMGWYRQAPGKERELVAAITWRGGSTYYADSVKGRFTIARDNAKNTVYLQMNSLKPQDSAVSSCAATLNRYGYDYWGQGTQVTVSS
polyreactivity (PSR sort gate): high polyreactivity

QVQLVESGGGLVQAGGSLRLSCAASGSIFSAYAIGWYRQAPGKERELDAAITKSSVTYYADSVKGRFTISRDNAKNSVYLHMNSLKPEDTAVYYCAAASGGTVVGEVDYWGQGTQVTVSS
polyreactivity (PSR sort gate): low polyreactivity

QVQLVESGGGLVQAGGSLRLSCAASGINFIVNPMGWYRQAPGKEREFVATISANSDGTYYADSVKGRFTISRDNAKNTVYLQMNSLKPEDTAVYYWGQGTQVTVSS
polyreactivity (PSR sort gate): low polyreactivity

QVQLVESGGGLVQAGGSLRLSCAASGSIFHYNAMGWYRQAPGKERELVARISVNGGRTYYADSVKGRFTISRDNAKNTDYLQMNSLKPEDTAVYYCAVEGVWRSFFYGYDSWGQGTQVTVSS
polyreactivity (PSR sort gate): low polyreactivity

QVQLVESGGGLVQAGGSLRLSCAASGSTFWTNAMGWYRQAPGKERQLVAASTEDGGSTYYADSVKGRFTISRDNAKNTVYLQMNSLKREVTAVYYCATVIGYLDDYLFPYPVPYYYWGQGTQVTVSS
polyreactivity (PSR sort gate): low polyreactivity

QVQLVESGGGLVQAGGSLRLSCAASGFTFTKNTMGWYRQAPGKERELVAAITKSGGRTYYADSVKGRFTISRDNAKNTVYLQMNSLKPEDTAVYYCAADYVRNNYPYGYWGQGTQVTVSS
polyreactivity (PSR sort gate): high polyreactivity

QVQLVESGGGLVQAGGSLRLSCAASGLIFSVYAMGWYRQAPGKERELVAAISWSGSTYYADSVKGRFTISRDNAKNTVYLQMNSLKPEDTAVYYCAAEYDYDHFYWMDYWGQGTQVTVSS
polyreactivity (PSR sort gate): high polyreactivity

QVQLVESGGGLVQAGGSLRLSCAASGSTLYSYAMGWYRQAPGKERELVAAIRRDSGRTYYADSVKGRFTISRDNAKNTVYLQMNSLKPEDTAVYYCAVRKQYSGRYYRAYDYWGQGTQVTVSS
polyreactivity (PSR sort gate): high polyreactivity

QVQLVESGVGLVQAGGSLRLTCAASGSIFGRKAMGWYRKATGKERELVAAIRTRGGSTYYADSVKGRFTISRDNAKNTLYLQMNSLKPEDTAVFFCAAPGGGKVVDYWGQGTHVTVSS
polyreactivity (PSR sort gate): low polyreactivity

QVQLVESGGGLVQAGGSLRLSCAASGSTFGHYAMGWYRPAPGKERELVAVISRSGARTYYADSVKGRYTISRDNAKNTVYLQMNSLKPEDTAVYYCNAGPYGGNPFDYWGQGTQVTVSS
polyreactivity (PSR sort gate): high polyreactivity

QVQLVESGGGLVQAGGSLRLSCAASGLIFTTNAMGWSRPAPGTEREFVAAISPSGGSTYYADSVKGRFTISRDNAKNTVYLQMNSLKPEDTAVYYCAARYSPVWHKYYYWGQGTQVTVSS
polyreactivity (PSR sort gate): high polyreactivity

QVQLVESGGVLVQAGGSLRLSCAASGSIFSSNAMGWYRQAPGKERELVAAISSSGGSTYYADSVKGRFTISRDNAKNTVYLQMNSLKPEDTAVYYCATGKQVYGHYYWGQGTQVTVSS
polyreactivity (PSR sort gate): low polyreactivity

QVQLVESAGGLVQAGGSLRLRSAASGSTIWHNAMGWYRHAPGKERELVAGISGSGGSTYYADSVKGRFTISRDNAKNTVYLEMNSMKPDDTAVYYCATDGRSRVDGVRRGPYDYWGQGTHVTVSS
polyreactivity (PSR sort gate): low polyreactivity

QVQLVESGGGLVQAGGSLRLSCAASGFTFDTNAMGWYRPAPGKERELVAAISRIGGRTYADSVKGRFTISRDNAKNTVYLQMNSLKPEDTAVYYCAADTTWYPYGYDSWGQGTQVTVSS
polyreactivity (PSR sort gate): low polyreactivity

QVQLVESGGGLVQAGGSLRLSCAASGSIFYHNAMGWYRQAPGKERELVAAISYRTGRTYYADSVKGRFTISRDNAKNTVYLQMNSLKPEDTAVYYCAAPYSWGQGTQVTVSS
polyreactivity (PSR sort gate): high polyreactivity

QVQLVESGGGLVQAGGSLRLSCAASGSTFYQNAMGWYRQAPGKERELVAAISRSGGGTYYADSVKGRFTISRDNAKNTVYLQMNSLKPEDTAVYYCAVRPTYNSWTRSTSRYYYWGQGTQVTVSS
polyreactivity (PSR sort gate): high polyreactivity

QVQIVESGGGLVQAGGSLRLSCAASGRTFAGNAMGWYRQAPGKERELVAGISSGGSTNNADSVKGRFTISRDNAKNTVYLQMNSLNPEDTAVYYCAKRYFRKGYPLFHYAYGYWGQGTQVTVSS
polyreactivity (PSR sort gate): high polyreactivity

QVQLVESRGGLVQAGGSLRLSCAASGSTFVRNAMGWYRQAPGKERELVAAISRSGGRTYYADSVMGRFTISRDNAKNTVYLQMNSLKPDDTAVYYCAKKRSKAISFDYWGQGTQVTVSS
polyreactivity (PSR sort gate): high polyreactivity

QVQLVESGGGLVQAGGSLRLSCAASGRIFNFNGMGWYRQAPGKERELVAAITSGGSTYYADSVKGRFTISRDNAKNTVYLQMNSLKPEDTAVYYCAAQNAWWSNGRSYDYWGQGTQVTVSS
polyreactivity (PSR sort gate): low polyreactivity

QVQLVESGGGCSGGRSLRLSCAASGLIFVDNAMGWYRQAPGKERELVAAITWSTGSTYYADSVKGRFTISRDNAKNTVYLQMNSLKPEDTAVYYCNKRYKYRYYYWGQGTQVTVSS
polyreactivity (PSR sort gate): low polyreactivity

QVQLVESGGGLVQAGGSLRLSCAASGFIFVSYSLGWYRQAPGKERELVAAIDRIGGITYYADSVKGRFTISRDNSKNTVYLQMNSLKPEDTAVYYCAAAASYATVRVGREYYWGQGTHVTVSS
polyreactivity (PSR sort gate): low polyreactivity

QVQLVESGGGLVQAGGSLRLSCHATGFTFTIYAMGWYRQAPGKERELVATISGRAGRTYYADSVKGRFTISRDIAKNTVYLQMNSLKPEDTAVYYCNAGQWRYPGLYYYWGKGTQVTVSS
polyreactivity (PSR sort gate): high polyreactivity

QVQLVESGGGLVQAGGSLRLSCAASGSTFVDNAMGWYRQAPGKERELVAAISSSGGTTYYADSVKGRFTISRDNAKNTVYLQMNSLKPEDTAVYYCAARRRSGTYWRSANDYWGQGTQVTVSS
polyreactivity (PSR sort gate): high polyreactivity

QVQLVESGGGLVQAGGSLRLSCAASGITFQWYAMGWYRQAPGKERELVAAITYRGGSTYYADSVKGRFTISRDNAKNTVYLQMNSLKPEDTAVYYCARDHSRHLHPSWLDYWGQGTQVTVSS
polyreactivity (PSR sort gate): high polyreactivity

QVQLVESGGGLVQAGGSLRLSCAASGRILPYYAMGWYRQAPGKERELVAAITSGGSTYYADSVKGRFTISRDNAKNTVSLQMNSLKPEDTAVYYCATDVDKSLYDYWGQGTQVTVSS
polyreactivity (PSR sort gate): low polyreactivity

QVQLVESGGGLVQAGGSLRLSCAASGRTFNAMGWSRQAPGKERELVASISRRGGSTSYADSVKGRFTISRDNAKNTVYLQMYSLKPEDTAVYYCAARVGWVRYGYWGQGTQVTVSS
polyreactivity (PSR sort gate): low polyreactivity

QVQLVESGGGLVQAGGSLRLSCAASGSISYPNAMGWYRQAPGKERELVAAINSGDRTNYADSVKGRFTISRDNAKNTVYLQMNSLKPEDTAVYYCARRRYLLWGGYGYWGQGTQVTVSS
polyreactivity (PSR sort gate): low polyreactivity

QVQLVESGGGLVQAGGSLRLTCAASGRIFTRYSMGWYRKAPGKEREFVAAITNSGASTYYADSVKGRFTISRDNAKITVYLQMNSLKPEDTAVYYCAGDGPYWWDYDYWGQGTQETVSS
polyreactivity (PSR sort gate): high polyreactivity

QGQLVESGGGLVQAGGSLRLTCAASGSTFRWNVMGWYRQAPGKERELVAAISSTGDNTYYADSVKGRFTISRDNAKNTGYLQMNSLKPEDTAVYYCAAGRGARDRARKHGYWGQGTQVTVSS
polyreactivity (PSR sort gate): high polyreactivity

QVQHVESGGGKVQAGGSLRLSCASSGFTIMSYAMGWYRQAPGKERELVAAISRSGGSTYYADSVKGRFTISRDKAKNTVYLQMISLKPEDTAVYYCAARSAFRKQFSRNNYWGQGSQVTVSS
polyreactivity (PSR sort gate): high polyreactivity

QVQLVESGGGLVQAGGSLRLSCAASGRIFCTNAMGWYRHEPGKERELVADITSGGSTNYADSVKGRFTISRDNAKNTVYLQMNSLKPEDTAVYSCAADVIGDLRWYRDEYWGQGTQVTVSS
polyreactivity (PSR sort gate): low polyreactivity

QVQLVESGGRSVQAGGSRRLSCAASGFSFHYYAMGWYRAAPATERELVAAITSRGTATYYADSVKGRFTISRDTAKITVDLLMNCLKPEDTAVYYCAKASTERMGSWGQGTQVTVSS
polyreactivity (PSR sort gate): high polyreactivity

QVQLVESGGGLVQAGGSLRLSCAASGRIFTRSAMGWYRQAPGKERELVAVITRSGGSTYYADSVKGRFTISRDNAKKTVYLQMNSLKPEDTAVYYCAAKYYGEMYYWGQGTQVTVSS
polyreactivity (PSR sort gate): low polyreactivity

QVQLVESGGGLVQAGGSLRLSCAASGRIGYNAMGWYRQAPGKERELVAAISSRGGSTYYADSVKGRFTISRDNAKNTVYLQMNSLKPEDTAVYYCNADYEARTRLGEYDYWGQGTQVTVSS
polyreactivity (PSR sort gate): high polyreactivity
